Results as given in publication PMC7111312 (Virology, 2019).

Molecular target: the molecule itself
Assay: crystal structure

B1: Wild type CavV 3CLpro (Cavally virus 3C-like protease) (enzyme, Cavally virus (CavV), UniProt F8RL29 1387-1700, looked up)
chain: SAASNPSISHIVLEMPVAINPLIKYTTRTSVSSLRGAVVNGYIYIQRHLFGSKKQEFEACYNNGKGLLNCKNLERSKYDIDSAELIGTLIRIPLHDKHSIPHISIHPDPLSYNGPVTLYLSRYDTELNKDVLCVHTGFMSEGHHDIKTVFGDCGGMLFDPKGRLLGLHCAGSDDVVFMDTTTGKSNIWTSYKLQHPSEIMITLNNEINLPNPANYDFETTKVVYQHPLRNVCATLETLQHLTNKTNAKLPYDSRLLSDFNITAEQYNQYGYYIDYNNFVNNFNRYTTTTIGTKSFETCIKYGLMDNKKPDYYNQ
stoichiometry N: 2
